In article PMC3977044:
Residue numbers refer to the chain shown, from its start. Like-named read-outs stand apart in the source and are kept apart here.

Experiments:
[1] = molecular target: Mos1 transposase D284A (with T216A), catalytically inactive mutant (Drosophila mauritiana); experiment: SEC
[2] = molecular target: Mos1 transposase R48Q/Q100R (with T216A), DNA binding deficient mutant (Drosophila mauritiana); experiment: SEC
[3] = molecular target: Mos1 transposase R48Q/Q100R D284A (with T216A), DNA binding and catalytically inactive mutant (Drosophila mauritiana); experiment: SEC
Mos1 transposase T216A [4] = molecular target: T1, Mos1 transposase T216A (Drosophila mauritiana (mariner Mos1), UniProt Q7JQ07 1-345, T216A); experiment: X-ray crystallography
T1 sequence: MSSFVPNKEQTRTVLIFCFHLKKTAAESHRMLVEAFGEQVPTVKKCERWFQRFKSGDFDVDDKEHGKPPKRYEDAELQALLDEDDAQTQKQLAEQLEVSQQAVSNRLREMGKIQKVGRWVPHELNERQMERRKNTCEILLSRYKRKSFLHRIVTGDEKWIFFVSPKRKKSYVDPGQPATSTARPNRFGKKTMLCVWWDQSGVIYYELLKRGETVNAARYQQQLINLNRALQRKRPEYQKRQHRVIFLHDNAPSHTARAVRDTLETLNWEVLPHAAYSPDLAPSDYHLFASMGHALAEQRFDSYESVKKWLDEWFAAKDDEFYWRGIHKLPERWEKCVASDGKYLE

Mos1 transposase T216A [5] = molecular target: T1, Mos1 transposase T216A; experiment: X-ray crystallography; remark: listed apart in the source
[6] = molecular target: T2, Mos1 transposase R48Q/Q100R (Drosophila mauritiana (mariner Mos1), UniProt Q7JQ07 1-345, R48Q;Q100R;T216A); experiment: EMSA
T2 sequence: T1 sequence with R48Q, Q100R

## Mos1 transposase D284A (with T216A), catalytically inactive mutant (enzyme)
[1]
  stoichiometry N: 2

## Mos1 transposase R48Q/Q100R (with T216A), DNA binding deficient mutant (enzyme)
[2]
  stoichiometry N: 2

## Mos1 transposase R48Q/Q100R D284A (with T216A), DNA binding and catalytically inactive mutant (enzyme)
[3]
  stoichiometry N: 2

B1: pre-cleaved IRR duplex (28 nt TS / 25 nt NTS) (dsDNA)
DNA 1: AAACGACATTTCATACTTGTACACCTGA
DNA 2: GGTGTACAAGTATGAAATGTCGTTT
modifications: 5' phosphate on NTS
Mos1 transposase T216A [4]
  binding result: binds

B2: IRR duplex with 5-iodo-dU at T16 (dsDNA)
DNA 1: AAACGACATTTCATACTTGTACACCTGA
DNA 2: GGTGTACAAGTATGAAATGTCGTTT
modifications: 5-iodo-dU replacing T16 (NTS nucleotide 13 by structure numbering); 5' phosphate on NTS presumed
Mos1 transposase T216A [5]
  binding result: binds

B3: 100 bp IRR plus flank NTS cleavage substrate (dsDNA)
DNA 1: ACGGGCTCCAGTCGGTGAATATAGAAACTATCAGGTGTACAAGTATGAAATGTCGTTTTTTTTAAATCAAAAAACACGTTAAATTTTGTGGAAAAAGAAA
DNA 2: TTTCTTTTTCCACAAAATTTAACGTGTTTTTTGATTTAAAAAAAACGACATTTCATACTTGTACACCTGATAGTTTCTATATTCACCGACTGGAGCCCGT
[6]
  binding result: no binding
